Measured values taken from publication PMC5983932 (Oncology Reports, 2018).

T1: GST-ER-α66 fusion protein (UniProt P03372 1-595)
T1 sequence (looked up): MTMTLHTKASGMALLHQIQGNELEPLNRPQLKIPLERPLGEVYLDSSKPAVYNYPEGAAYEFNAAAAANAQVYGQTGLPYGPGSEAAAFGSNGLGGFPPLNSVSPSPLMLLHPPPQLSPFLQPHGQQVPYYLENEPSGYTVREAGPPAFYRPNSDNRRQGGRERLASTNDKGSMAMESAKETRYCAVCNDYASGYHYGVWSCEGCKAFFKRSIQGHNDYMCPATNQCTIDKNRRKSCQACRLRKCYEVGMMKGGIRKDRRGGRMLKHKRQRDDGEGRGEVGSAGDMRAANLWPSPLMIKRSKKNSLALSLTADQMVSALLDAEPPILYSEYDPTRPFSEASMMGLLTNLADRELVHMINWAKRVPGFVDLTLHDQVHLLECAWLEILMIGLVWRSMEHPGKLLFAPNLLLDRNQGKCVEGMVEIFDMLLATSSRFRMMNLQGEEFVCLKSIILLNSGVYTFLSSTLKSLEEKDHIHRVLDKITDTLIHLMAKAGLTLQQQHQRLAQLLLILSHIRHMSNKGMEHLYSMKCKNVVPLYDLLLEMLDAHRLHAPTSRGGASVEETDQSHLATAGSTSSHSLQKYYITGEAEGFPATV

B1: recombinant human His-tag-PRMT2 protein (protein arginine N-methyltransferase 2) (enzyme, UniProt P55345-1 1-433, looked up)
chain: MATSGDCPRSESQGEEPAECSEAGLLQEGVQPEEFVAIADYAATDETQLSFLRGEKILILRQTTADWWWGERAGCCGYIPANHVGKHVDEYDPEDTWQDEEYFGSYGTLKLHLEMLADQPRTTKYHSVILQNKESLTDKVILDVGCGTGIISLFCAHYARPRAVYAVEASEMAQHTGQLVLQNGFADIITVYQQKVEDVVLPEKVDVLVSEWMGTCLLFEFMIESILYARDAWLKEDGVIWPTMAALHLVPCSADKDYRSKVLFWDNAYEFNLSALKSLAVKEFFSKPKYNHILKPEDCLSEPCTILQLDMRTVQISDLETLRGELRFDIRKAGTLHGFTAWFSVHFQSLQEGQPPQVLSTGPFHPTTHWKQTLFMMDDPVPVHTGDVVTGSVVLQRNPVWRRHMSVALSWAVTSRQDPTSQKVGEKVFPIWR
B2: GST-ER-α36 fusion protein (receptor, UniProt P03372-4 1-310, looked up)
chain: MAMESAKETRYCAVCNDYASGYHYGVWSCEGCKAFFKRSIQGHNDYMCPATNQCTIDKNRRKSCQACRLRKCYEVGMMKGGIRKDRRGGRMLKHKRQRDDGEGRGEVGSAGDMRAANLWPSPLMIKRSKKNSLALSLTADQMVSALLDAEPPILYSEYDPTRPFSEASMMGLLTNLADRELVHMINWAKRVPGFVDLTLHDQVHLLECAWLEILMIGLVWRSMEHPGKLLFAPNLLLDRNQGKCVEGMVEIFDMLLATSSRFRMMNLQGEEFVCLKSIILLNSGISHVEAKKRILNLHPKIFGNKWFPRV

Tests used:
[1] = biological target: T1, GST-ER-α66 fusion protein; experiment: pull-down
[2] = biological target: B1; experiment: pull-down

| binding result [1] | binding result [2] | Binder |
| --- | --- | --- |
| binds | – | B1 |
| – | binds | B2 |
